According to patent publication US20210115124A1 (Genentech, published 2021):

T1: human VEGF (hVEGF) (human, UniProt P15692 181-395)
T1 construct: also called VEGF-A
T1 sequence: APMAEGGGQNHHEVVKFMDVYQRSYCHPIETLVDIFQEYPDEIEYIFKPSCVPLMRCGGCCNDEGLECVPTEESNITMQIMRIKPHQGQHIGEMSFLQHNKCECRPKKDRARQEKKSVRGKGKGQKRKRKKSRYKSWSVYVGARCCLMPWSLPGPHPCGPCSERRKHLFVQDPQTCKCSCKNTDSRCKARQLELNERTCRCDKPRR

B1: G6.31 HC-Q81W (Fab, name in Kabat numbering, V domains shown)
VH: EVQLVESGGGLVQPGGSLRLSCAASGFTISDYWIHWVRQAPGKGLEWVAGITPAGGYTYYADSVKGRFTISADTSKNTAYLWMNSLRAEDTAVYYCARFVFFLPYAMDYWGQGTLVTVSS
VL: DIQMTQSPSSLSASVGDRVTITCRASQDVSTAVAWYQQKPGKAPKLLIYSASFLYSGVPSRFSGSGSGTDFTLTISSLQPEDFATYYCQQGYGNPFTFGQGTKVEIK
notes: Fab
B2: G6.31 HC-Y58Q (Fab, name in Kabat numbering, V domains shown)
VH: EVQLVESGGGLVQPGGSLRLSCAASGFTISDYWIHWVRQAPGKGLEWVAGITPAGGYTQYADSVKGRFTISADTSKNTAYLQMNSLRAEDTAVYYCARFVFFLPYAMDYWGQGTLVTVSS
VL: DIQMTQSPSSLSASVGDRVTITCRASQDVSTAVAWYQQKPGKAPKLLIYSASFLYSGVPSRFSGSGSGTDFTLTISSLQPEDFATYYCQQGYGNPFTFGQGTKVEIK
notes: Fab
B3: G6.31 LC-T97N (Fab, V domains shown)
VH: EVQLVESGGGLVQPGGSLRLSCAASGFTISDYWIHWVRQAPGKGLEWVAGITPAGGYTYYADSVKGRFTISADTSKNTAYLQMNSLRAEDTAVYYCARFVFFLPYAMDYWGQGTLVTVSS
VL: DIQMTQSPSSLSASVGDRVTITCRASQDVSTAVAWYQQKPGKAPKLLIYSASFLYSGVPSRFSGSGSGTDFTLTISSLQPEDFATYYCQQGYGNPFNFGQGTKVEIK
notes: Fab
B4: G6.31 HC-S70H (Fab, name in Kabat numbering, V domains shown)
VH: EVQLVESGGGLVQPGGSLRLSCAASGFTISDYWIHWVRQAPGKGLEWVAGITPAGGYTYYADSVKGRFTIHADTSKNTAYLQMNSLRAEDTAVYYCARFVFFLPYAMDYWGQGTLVTVSS
VL: DIQMTQSPSSLSASVGDRVTITCRASQDVSTAVAWYQQKPGKAPKLLIYSASFLYSGVPSRFSGSGSGTDFTLTISSLQPEDFATYYCQQGYGNPFTFGQGTKVEIK
notes: Fab
B5: G6.31 HC-T73N (Fab, name in Kabat numbering, V domains shown)
VH: EVQLVESGGGLVQPGGSLRLSCAASGFTISDYWIHWVRQAPGKGLEWVAGITPAGGYTYYADSVKGRFTISADNSKNTAYLQMNSLRAEDTAVYYCARFVFFLPYAMDYWGQGTLVTVSS
VL: DIQMTQSPSSLSASVGDRVTITCRASQDVSTAVAWYQQKPGKAPKLLIYSASFLYSGVPSRFSGSGSGTDFTLTISSLQPEDFATYYCQQGYGNPFTFGQGTKVEIK
notes: Fab
B6: G6.31 HC-Y59T (Fab, name in Kabat numbering, V domains shown)
VH: EVQLVESGGGLVQPGGSLRLSCAASGFTISDYWIHWVRQAPGKGLEWVAGITPAGGYTYTADSVKGRFTISADTSKNTAYLQMNSLRAEDTAVYYCARFVFFLPYAMDYWGQGTLVTVSS
VL: DIQMTQSPSSLSASVGDRVTITCRASQDVSTAVAWYQQKPGKAPKLLIYSASFLYSGVPSRFSGSGSGTDFTLTISSLQPEDFATYYCQQGYGNPFTFGQGTKVEIK
notes: Fab
B7: G6.31 LC-Q37A (Fab, V domains shown)
VH: EVQLVESGGGLVQPGGSLRLSCAASGFTISDYWIHWVRQAPGKGLEWVAGITPAGGYTYYADSVKGRFTISADTSKNTAYLQMNSLRAEDTAVYYCARFVFFLPYAMDYWGQGTLVTVSS
VL: DIQMTQSPSSLSASVGDRVTITCRASQDVSTAVAWYAQKPGKAPKLLIYSASFLYSGVPSRFSGSGSGTDFTLTISSLQPEDFATYYCQQGYGNPFTFGQGTKVEIK
notes: Fab
B8: G6.31 LC-Q89N (Fab, V domains shown)
VH: EVQLVESGGGLVQPGGSLRLSCAASGFTISDYWIHWVRQAPGKGLEWVAGITPAGGYTYYADSVKGRFTISADTSKNTAYLQMNSLRAEDTAVYYCARFVFFLPYAMDYWGQGTLVTVSS
VL: DIQMTQSPSSLSASVGDRVTITCRASQDVSTAVAWYQQKPGKAPKLLIYSASFLYSGVPSRFSGSGSGTDFTLTISSLQPEDFATYYCNQGYGNPFTFGQGTKVEIK
notes: Fab
B9: HCcombo (Fab, V domains shown)
VH: EEQLVEEGGGLVQPGESLELSCAASGFEISDYWIHWVRQEPGEGLEWVAGITPAGGYEYYADSVEGRFTISADTSENTAYLQMNELRAEDTAVYYCARFVFFLPYAMDYWGQGELVTVSS
VL: DIQMTQSPSSLSASVGDRVTITCRASQDVSTAVAWYQQKPGKAPKLLIYSASFLYSGVPSRFSGSGSGTDFTLTISSLQPEDFATYYCQQGYGNPFTFGQGTKVEIK
notes: Fab
B10: LCcombo2 (G6.31 WT VH with LCcombo2 VL) (Fab, V domains shown)
VH: EVQLVESGGGLVQPGGSLRLSCAASGFTISDYWIHWVRQAPGKGLEWVAGITPAGGYTYYADSVKGRFTISADTSKNTAYLQMNSLRAEDTAVYYCARFVFFLPYAMDYWGQGTLVTVSS
VL: DIQMTQSPSSLSASVGDEVTITCRASQDVSTAVAWYQQKPGEAPKLLIYSASFLYSGVPSRFSGSGSGTDFTLTIESLQPEDAATYYCQQGYGAPFTFGQGTKVEIK
notes: Fab
B11: LCcombo1 (G6.31 WT VH with LCcombo1 VL) (Fab, V domains shown)
VH: EVQLVESGGGLVQPGGSLRLSCAASGFTISDYWIHWVRQAPGKGLEWVAGITPAGGYTYYADSVKGRFTISADTSKNTAYLQMNSLRAEDTAVYYCARFVFFLPYAMDYWGQGTLVTVSS
VL: DIQMTQSPESLSASVGDEVTITCRASQDVSTAVAWYQQKPGKAPKLLIYSASFLYSGVPSRFSGSGSGTDFTLTISSLQPEDAATYYCQQGYGAPFTFGQGTKVEIK
notes: Fab
B12: LCcombo4 (G6.31 WT VH with LCcombo4 VL) (Fab, V domains shown)
VH: EVQLVESGGGLVQPGGSLRLSCAASGFTISDYWIHWVRQAPGKGLEWVAGITPAGGYTYYADSVKGRFTISADTSKNTAYLQMNSLRAEDTAVYYCARFVFFLPYAMDYWGQGTLVTVSS
VL: DIQMTQSPSSLSASVGDEVTITCRASQDVSTAVAWYQQKPGKAPKLLIYSASFLYSGVPSRFSGSGSGTDFTLTISSLQPEDAATYYCQQGYGAPFTFGQGTKVEIK
notes: Fab
B13: LCcombo3 (G6.31 WT VH with LCcombo3 VL) (Fab, V domains shown)
VH: EVQLVESGGGLVQPGGSLRLSCAASGFTISDYWIHWVRQAPGKGLEWVAGITPAGGYTYYADSVKGRFTISADTSKNTAYLQMNSLRAEDTAVYYCARFVFFLPYAMDYWGQGTLVTVSS
VL: DIQMTQSPESLSASVGDEVTITCRASQDVSTAVAWYQQKPGEAPKLLIYSASFLYSGVPSRFSGSGSGTDFTLTISSLQPEDAATYYCQQGYGAPFTFGQGTKVEIK
notes: Fab

These binders were tested against T1, human VEGF (hVEGF) (assay: SPR single-cycle).
Text: (§1) To determine the binding affinity of selected Fab variants, SPR measurement with a BIACORE® T200 instrument was used. Briefly, series S sensor chip CM5 was activated with 1-ethyl-3-(3-dimethylaminopropyl) carbodiimide (EDC) and N-hydroxysuccinimide (NHS) reagents according to the supplier's instructions, and human VEGF (hVEGF) was coupled to achieve 50-80 response units (RU), then following by blocking un-reacted groups with 1M ethanolamine.
(§2) Three-fold serial dilutions of Fab in HBS-P buffer (0.01 M HEPES pH 7.4, 0.15 M NaCl, 0.005% surfactant P20) from low (0.02 nM) to high (50 nM) were injected (flow rate: 30 μl/min). The binding responses on hVEGF were corrected by subtracting of RU from a blank flow cell. The sensorgram was recorded and subject to reference and buffer subtraction before evaluating by BIACORE® T200 Evaluation Software (version 2.0). Association rates (kₒₙ) and dissociation rates (koff) were calculated using a simple one-to-one Langmuir binding model. The equilibrium dissociation constant (Kd) was calculated as the ratio koff/kₒₙ.
With B1 the “Fold difference (relative to G6.31)” value was 3.4 fold, the Kd was 0.45 nM and the koff was 0.000542 s⁻¹. For the same binder, the kon was 1.2e+06 M⁻¹ s⁻¹. B2 was tested, and the “Fold difference (relative to G6.31)” value was 1.5 fold, the Kd was 1.02 nM and the koff was 0.000358 s⁻¹. For the same binder, the kon was 352000 M⁻¹ s⁻¹. B3 was tested, and the “Fold difference (relative to G6.31)” value was 0.8 fold, the Kd was 1.86 nM and the koff was 0.000802 s⁻¹. It also gave a kon of 432000 M⁻¹ s⁻¹. For B4, the “Fold difference (relative to G6.31)” value was 1.5 fold, the Kd was 1 nM and the koff was 0.00066 s⁻¹. It also gave a kon of 658000 M⁻¹ s⁻¹. In the case of B5, the “Fold difference (relative to G6.31)” value is reported as 1.8 fold, the Kd is reported as 0.85 nM and the koff is reported as 0.000575 s⁻¹. For the same binder, the kon was 678000 M⁻¹ s⁻¹. B6 was tested, and the “Fold difference (relative to G6.31)” value was 0.6 fold, the Kd was 2.71 nM and the koff was 0.000974 s⁻¹. For the same binder, the kon was 360000 M⁻¹ s⁻¹. For B7, the “Fold difference (relative to G6.31)” value was 1.8 fold, the Kd was 0.85 nM and the koff was 0.000515 s⁻¹. The kon was 603000 M⁻¹ s⁻¹. In the case of B8, the “Fold difference (relative to G6.31)” value is reported as 3.5 fold, the Kd is reported as 0.44 nM and the koff is reported as 0.000435 s⁻¹. It also gave a kon of 991000 M⁻¹ s⁻¹.

What follows are binders tested against T1, human VEGF (hVEGF) (assay: SPR).
Text: as §1, §2
Binder B9 has a Kd of 0.134 nM, a koff of 0.000274 s⁻¹ and a kon of 2.05e+06 M⁻¹ s⁻¹.

Molecular target: T1, human VEGF (hVEGF)
Assay: SPR
Remark: another data set of the same source
Text: as §1, §2
B10 was tested, and the Kd was 1.11 nM, the koff was 0.000667 s⁻¹ and the kon was 599000 M⁻¹ s⁻¹. Binder B9 has a Kd of 0.134 nM, a koff of 0.000274 s⁻¹ and a kon of 2.05e+06 M⁻¹ s⁻¹. Binder B11 has a Kd of 2.27 nM, a koff of 0.00101 s⁻¹ and a kon of 447000 M⁻¹ s⁻¹. With B12 the Kd was 1.75 nM, the koff was 0.000808 s⁻¹ and the kon was 463000 M⁻¹ s⁻¹. B13 showed a Kd of 1.34 nM, a koff of 0.000768 s⁻¹ and a kon of 574000 M⁻¹ s⁻¹.
